# Source: the Immune Epitope Database (IEDB)
# pIC50, pKd: −log10 of the molar value.
# Experiments:
# HLA-A*02:01 [1] = test: IEDB peptide-MHC binding, purified MHC/competitive/fluorescence; ≥ and ≤ were set here for values at or beyond the usual limits of such assays
# HLA-B*44:02 = test: IEDB peptide-MHC binding, purified MHC/competitive/radioactivity; filed as Kd, often an IC50 or EC50 that approximates it; ≥ and ≤ were set here for values at or beyond the usual limits of such assays
# HLA-B*44:03 = test: as above
# HLA-A*02:01 [2] = test: IEDB peptide-MHC binding, purified MHC/direct/fluorescence; filed as Kd, often an IC50 or EC50 that approximates it; ≥ and ≤ were set here for values at or beyond the usual limits of such assays; conditions: source organism: Vaccinia virus Copenhagen
# HLA-A*69:01 = test: as above; conditions: source organism: Vaccinia virus Copenhagen
# HLA-B*15:01 = test: as above; conditions: source organism: Vaccinia virus Copenhagen
# HLA-B*58:01 = test: as above; conditions: source organism: Vaccinia virus Copenhagen
# HLA-A*01:01 = test: IEDB peptide-MHC binding, purified MHC/competitive/radioactivity; filed as Kd, often an IC50 or EC50 that approximates it; ≥ and ≤ were set here for values at or beyond the usual limits of such assays
# HLA-A*26:01 = test: as above
# HLA-A*29:02 = test: as above
# HLA-A*30:01 = test: as above
# HLA-A*30:02 = test: as above
# HLA-A*32:01 = test: as above
# HLA-A*11:01 = test: IEDB peptide-MHC binding, purified MHC/direct/fluorescence; filed as Kd, often an IC50 or EC50 that approximates it; ≥ and ≤ were set here for values at or beyond the usual limits of such assays; conditions: source organism: SARS-CoV1
# HLA-B*40:01 = test: IEDB peptide-MHC binding, purified MHC/competitive/radioactivity; filed as Kd, often an IC50 or EC50 that approximates it; ≥ and ≤ were set here for values at or beyond the usual limits of such assays
# HLA-A*23:01 = test: as above
# HLA-A*24:02 = test: as above
# [3] = source organism: Zaire ebolavirus
# [4] = source organism: Dengue virus 4 Philippines/H241/1956
# [5] = source organism: Lymphocytic choriomeningitis virus (strain Armstrong)
# [6] = source organism: Mammarenavirus guanaritoense
# [7] = source organism: Dengue virus 1 Brazil/97-11/1997
# [8] = source organism: Dengue virus 3 Martinique/1243/1999
# [9] = source organism: Mammarenavirus brazilense
# [10] = source organism: Dengue virus 2 Jamaica/1409/1983
# [11] = source organism: Mammarenavirus lassaense
# [12] = source organism: Vaccinia virus Copenhagen
# [13] = source organism: Vaccinia virus WR
# [14] = source organism: Mammarenavirus mopeiaense
# [15] = source organism: Lassa virus Josiah
sequence,measurement,setting,value
AATEAEKQL,pIC50,HLA-A*02:01 [1]; [3],≤ 3.36
AGISYKDREW,pKd,HLA-B*44:02; [4],6.07
same,pKd,HLA-B*44:03; [4],5.38
AHGSTLAGV,pIC50,HLA-A*02:01 [1]; [3],4.22
CEPRSGIDF,pKd,HLA-B*44:03; [4],6.05
DFLLQRWGG,pIC50,HLA-A*02:01 [1]; [3],4.77
DKIDQIIHD,pIC50,HLA-A*02:01 [1]; [3],≤ 3.41
DLGPAFTEL,pKd,HLA-A*02:01 [2],6.66
same,pKd,HLA-A*69:01,7.65
same,pKd,HLA-B*15:01,≤ 4.56
same,pKd,HLA-B*58:01,5.06
DLMGVPYCNY,pKd,HLA-A*01:01; [5],5.34
same,pKd,HLA-A*26:01; [5],6.79
same,pKd,HLA-A*29:02; [5],6.83
same,pKd,HLA-A*30:01; [5],≤ 4.17
same,pKd,HLA-A*30:02; [5],6.26
same,pKd,HLA-A*32:01; [5],≤ 4.28
DLMSMSDGEF,pKd,HLA-A*01:01; [6],≤ 4.39
same,pKd,HLA-A*26:01; [6],6.17
same,pKd,HLA-A*29:02; [6],5.05
same,pKd,HLA-A*30:01; [6],≤ 4.15
same,pKd,HLA-A*30:02; [6],5.72
same,pKd,HLA-A*32:01; [6],≤ 4.64
DNSTHNTPV,pIC50,HLA-A*02:01 [1]; [3],≤ 3.34
DRYPANAIV,pKd,HLA-A*11:01,≤ 4.60
EELPDTIETL,pKd,HLA-B*40:01; [7],6.78
EEMFKKRNLT,pKd,HLA-B*44:03; [8],5.34
EERDDTLTI,pKd,HLA-B*44:03; [7],5.84
EFSRSILWDY,pKd,HLA-A*01:01; [6],6.13
same,pKd,HLA-A*26:01; [6],4.99
same,pKd,HLA-A*29:02; [6],5.95
same,pKd,HLA-A*30:01; [6],5.85
same,pKd,HLA-A*30:02; [6],6.68
same,pKd,HLA-A*32:01; [6],≤ 4.67
ELLGYCVSLF,pKd,HLA-A*01:01; [9],5.44
same,pKd,HLA-A*26:01; [9],6.50
same,pKd,HLA-A*29:02; [9],5.03
same,pKd,HLA-A*30:01; [9],5.73
same,pKd,HLA-A*30:02; [9],4.76
same,pKd,HLA-A*32:01; [9],4.96
FEIMDLEKRH,pKd,HLA-B*40:01; [10],6.23
FEKQLGQIML,pKd,HLA-B*40:01; [7],6.84
FTSDVKAAVI,pKd,HLA-A*01:01; [5],6.37
same,pKd,HLA-A*26:01; [5],5.19
same,pKd,HLA-A*29:02; [5],≤ 4.51
same,pKd,HLA-A*30:01; [5],5.30
same,pKd,HLA-A*30:02; [5],≤ 4.20
same,pKd,HLA-A*32:01; [5],≤ 4.16
FYSQESPQSY,pKd,HLA-A*01:01; [11],6.12
same,pKd,HLA-A*26:01; [11],6.42
same,pKd,HLA-A*29:02; [11],8.75
same,pKd,HLA-A*30:01; [11],≤ 4.31
same,pKd,HLA-A*30:02; [11],5.53
same,pKd,HLA-A*32:01; [11],5.03
GEIGAIALDF,pKd,HLA-B*44:02; [8],7.87
same,pKd,HLA-B*44:03; [8],8.05
GEIGAVTLDF,pKd,HLA-B*40:01; [4],7.14
same,pKd,HLA-B*44:02; [4],7.77
same,pKd,HLA-B*44:03; [4],7.67
GESSSNPTI,pKd,HLA-B*40:01; [4],7.77
same,pKd,HLA-B*44:02; [4],7.12
GTAKLRWFVE,pKd,HLA-A*32:01; [7],≤ 4.68
HTSGPSVMA,pIC50,HLA-A*02:01 [1]; source organism: Sudan ebolavirus,≤ 3.69
IEETNMITL,pKd,HLA-B*40:01; [4],7.92
IFINKLNGA,pIC50,HLA-A*02:01 [1]; [12],5.48
IHAHHQWMTT,pKd,HLA-A*32:01; [7],≤ 4.57
ILYYLSAKI,pKd,HLA-A*32:01; [12],8.05
KELKCGSGI,pKd,HLA-B*40:01; [10],6.69
same,pKd,HLA-B*44:02; [10],6.17
KEVALLRTY,pKd,HLA-B*44:02; [4],8.58
same,pKd,HLA-B*44:03; [4],7.20
KMSYSSVMI,pKd,HLA-A*32:01; [13],7.85
KTINYSFFL,pKd,HLA-A*32:01; [13],≥ 9.00
LCLSGEGWPY,pKd,HLA-A*23:01; [14],≤ 4.15
same,pKd,HLA-A*24:02; [14],≤ 4.15
same,pKd,HLA-A*26:01; [14],≤ 4.16
same,pKd,HLA-A*30:01; [14],≤ 4.15
same,pKd,HLA-A*32:01; [14],≤ 4.27
LEENMEVEI,pKd,HLA-B*40:01; [4],7.08
LEKAANVQW,pKd,HLA-B*44:02; [4],7.23
same,pKd,HLA-B*44:03; [4],6.41
LETLLLLTL,pKd,HLA-B*40:01; [10],8.24
same,pKd,HLA-B*44:02; [10],6.22
same,pKd,HLA-B*44:03; [10],5.87
LSNYIVSIF,pKd,HLA-A*32:01; [13],6.95
LVINRLGAD,pIC50,HLA-A*02:01 [1]; [13],≤ 3.88
LYNFATCGLV,pKd,HLA-A*01:01; [15],≤ 4.50
same,pKd,HLA-A*23:01; [15],5.63
same,pKd,HLA-A*24:02; [15],4.92
same,pKd,HLA-A*26:01; [15],≤ 4.16
same,pKd,HLA-A*29:02; [15],6.21
same,pKd,HLA-A*30:02; [15],6.24
